This is an account of results in patent US20080050387A1 (published 2008).

The chains are these.
T1: AR DBD-LBD (human, UniProt P10275 557-920)
T1 sequence: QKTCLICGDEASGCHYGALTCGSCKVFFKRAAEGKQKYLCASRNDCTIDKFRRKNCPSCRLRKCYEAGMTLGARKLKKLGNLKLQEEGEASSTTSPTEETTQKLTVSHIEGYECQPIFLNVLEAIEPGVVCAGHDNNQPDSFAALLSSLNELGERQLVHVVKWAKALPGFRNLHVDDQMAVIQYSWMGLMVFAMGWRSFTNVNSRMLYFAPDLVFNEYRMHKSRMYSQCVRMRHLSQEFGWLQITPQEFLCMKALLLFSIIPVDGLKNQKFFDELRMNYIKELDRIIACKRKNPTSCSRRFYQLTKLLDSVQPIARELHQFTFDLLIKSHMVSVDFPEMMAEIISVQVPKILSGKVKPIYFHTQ

T2: vitamin D receptor (VDR) (UniProt P11473 1-427)
T2 construct: also called VP16-VDR; VP 16-VDR
T2 sequence: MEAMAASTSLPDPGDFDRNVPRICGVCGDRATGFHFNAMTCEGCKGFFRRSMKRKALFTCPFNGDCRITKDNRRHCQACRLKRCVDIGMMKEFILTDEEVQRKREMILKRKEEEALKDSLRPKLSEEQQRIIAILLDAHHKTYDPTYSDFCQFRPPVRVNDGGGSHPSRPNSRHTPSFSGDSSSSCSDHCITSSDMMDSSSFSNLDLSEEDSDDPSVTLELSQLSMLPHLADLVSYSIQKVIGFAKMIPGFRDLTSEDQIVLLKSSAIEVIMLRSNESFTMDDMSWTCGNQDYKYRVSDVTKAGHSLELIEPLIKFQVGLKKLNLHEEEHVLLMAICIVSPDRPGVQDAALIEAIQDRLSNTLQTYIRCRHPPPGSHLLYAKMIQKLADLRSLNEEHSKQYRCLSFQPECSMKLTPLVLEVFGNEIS

T3: estrogen receptor α (ERα) (UniProt P03372 1-595)
T3 construct: also called VP16-ERα; ERcc
T3 sequence: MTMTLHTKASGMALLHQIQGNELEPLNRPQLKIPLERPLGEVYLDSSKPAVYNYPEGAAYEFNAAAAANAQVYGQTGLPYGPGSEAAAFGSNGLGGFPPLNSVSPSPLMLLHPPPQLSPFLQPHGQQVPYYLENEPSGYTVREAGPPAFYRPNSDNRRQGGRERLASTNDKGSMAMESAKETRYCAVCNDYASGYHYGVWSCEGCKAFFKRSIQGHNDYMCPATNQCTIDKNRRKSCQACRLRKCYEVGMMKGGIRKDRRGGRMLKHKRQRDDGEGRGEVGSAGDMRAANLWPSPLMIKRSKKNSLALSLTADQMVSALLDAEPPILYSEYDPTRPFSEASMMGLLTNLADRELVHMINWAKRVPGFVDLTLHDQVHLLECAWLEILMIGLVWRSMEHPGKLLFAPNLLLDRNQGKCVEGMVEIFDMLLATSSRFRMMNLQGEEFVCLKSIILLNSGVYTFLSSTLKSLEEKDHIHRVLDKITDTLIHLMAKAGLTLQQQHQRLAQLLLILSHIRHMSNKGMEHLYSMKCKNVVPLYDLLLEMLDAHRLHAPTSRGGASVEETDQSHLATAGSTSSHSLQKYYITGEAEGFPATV

T4: ARA67 clone of the CytoTrap screen, amino acids 20-585 of PAT1 (pMyr-ARA67) (Homo sapiens, UniProt Q92624 20-585)
T4 construct: The clone matched the DNA encoding aa 20-585 of PAT1 at 99.6% identity; also called pMyr-ARA67/PAT1
T4 sequence: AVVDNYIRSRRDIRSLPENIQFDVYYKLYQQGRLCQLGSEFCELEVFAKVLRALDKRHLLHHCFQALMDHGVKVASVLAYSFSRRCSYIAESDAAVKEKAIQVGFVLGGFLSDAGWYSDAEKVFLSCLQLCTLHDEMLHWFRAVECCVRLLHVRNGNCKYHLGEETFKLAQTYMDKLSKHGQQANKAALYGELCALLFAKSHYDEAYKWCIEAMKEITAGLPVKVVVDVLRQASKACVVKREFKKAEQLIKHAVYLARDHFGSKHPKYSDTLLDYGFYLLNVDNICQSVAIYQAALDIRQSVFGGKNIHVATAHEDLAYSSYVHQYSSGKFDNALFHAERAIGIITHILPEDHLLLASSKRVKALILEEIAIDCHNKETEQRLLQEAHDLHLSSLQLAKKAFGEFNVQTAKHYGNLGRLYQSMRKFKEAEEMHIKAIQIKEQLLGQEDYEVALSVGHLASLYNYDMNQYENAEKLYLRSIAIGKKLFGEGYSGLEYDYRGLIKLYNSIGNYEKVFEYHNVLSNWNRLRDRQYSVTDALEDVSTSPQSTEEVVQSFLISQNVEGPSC

T5: AR N-terminus, full length ARN (ARN1-556) (human, UniProt P10275 1-557)
T5 sequence: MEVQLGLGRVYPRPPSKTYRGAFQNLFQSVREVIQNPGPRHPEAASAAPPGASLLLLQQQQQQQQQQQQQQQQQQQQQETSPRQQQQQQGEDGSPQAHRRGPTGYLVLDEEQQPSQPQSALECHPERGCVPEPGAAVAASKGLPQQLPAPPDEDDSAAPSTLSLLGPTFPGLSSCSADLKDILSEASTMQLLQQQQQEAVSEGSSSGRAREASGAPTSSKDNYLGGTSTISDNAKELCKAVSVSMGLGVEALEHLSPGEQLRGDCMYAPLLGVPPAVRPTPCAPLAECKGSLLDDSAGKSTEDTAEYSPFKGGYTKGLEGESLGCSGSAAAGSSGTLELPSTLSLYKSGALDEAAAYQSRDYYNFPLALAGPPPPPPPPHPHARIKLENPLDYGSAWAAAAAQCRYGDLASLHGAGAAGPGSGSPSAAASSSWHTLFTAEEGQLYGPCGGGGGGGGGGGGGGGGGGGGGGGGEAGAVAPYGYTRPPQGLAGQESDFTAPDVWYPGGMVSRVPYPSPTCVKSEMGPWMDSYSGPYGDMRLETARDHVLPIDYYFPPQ

T6: VP16-AR containing the residues 37 to 919 (human, UniProt P10275 37-920)
T6 construct: also called pCMX-VP16-AR; full length AR fused to VP16
T6 sequence: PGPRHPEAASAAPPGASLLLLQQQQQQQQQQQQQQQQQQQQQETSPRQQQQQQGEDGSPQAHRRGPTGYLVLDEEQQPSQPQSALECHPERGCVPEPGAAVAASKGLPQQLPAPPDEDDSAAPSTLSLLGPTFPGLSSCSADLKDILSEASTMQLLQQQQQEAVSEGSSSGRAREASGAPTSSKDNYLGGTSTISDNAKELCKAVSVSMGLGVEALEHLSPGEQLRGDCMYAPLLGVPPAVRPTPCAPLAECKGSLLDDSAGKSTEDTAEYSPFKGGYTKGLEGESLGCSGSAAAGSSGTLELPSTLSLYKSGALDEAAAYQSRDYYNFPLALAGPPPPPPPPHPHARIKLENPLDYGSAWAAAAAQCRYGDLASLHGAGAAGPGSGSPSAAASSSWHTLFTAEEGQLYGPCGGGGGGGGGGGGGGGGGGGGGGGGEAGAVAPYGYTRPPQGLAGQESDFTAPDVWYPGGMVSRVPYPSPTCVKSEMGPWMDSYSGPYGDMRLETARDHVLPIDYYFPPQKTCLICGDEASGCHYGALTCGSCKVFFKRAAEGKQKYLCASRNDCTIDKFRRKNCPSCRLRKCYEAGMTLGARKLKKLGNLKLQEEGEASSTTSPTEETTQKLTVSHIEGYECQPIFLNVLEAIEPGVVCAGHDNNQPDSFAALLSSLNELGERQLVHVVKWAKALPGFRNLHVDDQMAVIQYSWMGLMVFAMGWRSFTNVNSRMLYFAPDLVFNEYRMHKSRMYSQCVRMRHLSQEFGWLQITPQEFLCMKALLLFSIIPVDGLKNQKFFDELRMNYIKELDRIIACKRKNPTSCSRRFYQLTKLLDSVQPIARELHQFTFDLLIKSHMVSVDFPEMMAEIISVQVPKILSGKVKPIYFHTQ

B1: f-hRad9, fragment of hRad9 isolated from yeast (aa 327-391) (other)
chain: LSPGPQPPKSPGPHSEEEDEAEPSTVPGTPPPKKFRSLFFGSILAPVRSPQGPSPVLAEDSEGEG
B2: testicular receptor 2 (TR2) (receptor)
chain: MATIEEIAHQIIEQQMGEIVTEQQTGQKIQIVTALDHNTQGKQFILTNHDGSTPSKVILARQDSTPGKVFLTTPDAAGVNQLFFTTPDLSAQHLQLLTDNSPDQGPNKVFDLCVVCGDKASGRHYGAVTCEGCKGFFKRSIRKNLVYSCRGSKDCIINKHHRNRCQYCRLQRCIAFGMKQDSVQCERKPIEVSREKSSNCAASTEKIYIRKDLRSPLTATPTFVTDSESTRSTGLLDSGMFMNIHPSGVKTESAVLMTSDKAESCQGDLSTLANVVTSLANLGKTKDLSQNSNEMSMIESLSNDDTSLCEFQEMQTNGDVSRAFDTLAKALNPGESTACQSSVAGMEGSVHLITGDSSINYTEKEGPLLSDSHVAFRLTMPSPMPEYLNVHYIGESASRLLFLSMHWALSIPSFQALGQENSISLVKAYWNELFTLGLAQCWQVMNVATILATFVNCLHNSLQQDAKVIAALIHFTRRAITDL
notes: hSos fusion (pSos-TR2) in yeast; also called pSos-TR2
B3: human checkpoint protein hRad9, full length (other)
chain: MKCLVTGGNVKVLGKAVHSLSRIGDELYLEPLEDGLSLRTVNSSRSAYACFLFAPLFFQQYQAATPGQDLLRCKILMKSFLSVFRSLAMLEKTVEKCCISLNGRSSRLVVQLHCKFGVRKTHNLSFQDCESLQAVFDPASCPHMLRAPARVLGEAVLPFSPALAEVTLGIGRGRRVILRSYHEEEADSTAKAMVTEMCLGEEDFQQLQAQEGVAITFCLKEFRGLLSFAESANLNLSIHFDAPGRPAIFTIKDSLLDGHFVLATLSDTDSHSQDLGSPERHQPVPQLQAHSTPHPDDFANDDIDSYMIAMETTIGNEGSRVLPSISLSPGPQPPKSPGPHSEEEDEAEPSTVPGTPPPKKFRSLFFGSILAPVRSPQGPSPVLAEDSEGEG
notes: Used as GST-hRad9 on beads, as GAL4 DBD fusion (mammalian two-hybrid), as Flag-hRad9 in 293T cells and as endogenous hRad9 of CWR22R cells; also called FL-hRad9; GST-hRad9
B4: AR DNA-binding domain (AR DBD) (receptor)
chain: KTCLICGDEASGCHYGALTCGSCKVFFKRAAEGKQKYLCASRNDCTIDKFRRKNCPSCRLRKCYEAG
notes: also called GAL4-AR-DBD

The target in one experiment is T1, AR DBD-LBD. The experiment in a line: cell-based or functional assay.
The target of the next experiment is T2, vitamin D receptor (VDR). The experiment in a line: mammalian two-hybrid in PC-3 cells, pM-f-hRad9 + VP16-VDR.
The target in experiment [1] is T3, estrogen receptor α (ERα). The experiment in a line: mammalian two-hybrid in PC-3 cells, pM-f-hRad9 + VP16-ERα, in the presence of estrogen.
The target of experiment [2] is B4. In words: yeast two-hybrid (AH109), GAL4-AR-DBD + f-hRad9 fused to an activation domain, 10 nM DHT.
The target in experiment [3] is T4, ARA67 clone of the CytoTrap screen, …. The experiment in a line: CytoTrap Sos yeast two-hybrid, growth of cdc25H on SD/Gal(-LU) at 37° C.
Experimental: The bait and library constructs were co-transformed into yeast strain cdc25H. […] Only the clones that grow out on SD/Gal (−LU) plates but not on SD/Glu (−LU) plates at 37° C. are interaction positive ones.
Experiment [4] concerns the target T5, AR N-terminus, full length ARN …. In words: GST pull-down: GST-hRad9 with 35S-labeled AR domains.
For experiment [5], the target named is T6, VP16-AR containing the residues 37 to …. In words: mammalian two-hybrid in PC-3 cells, GAL4 DBD-FL-hRad9 + VP16-AR; inhibited by hydroxyflutamide.
The target in experiment [6] is B3. In words: GST pull-down: GST-hRad9 with 35S-labeled AR domains.

Consider B1, for which the “reporter activity (yeast two-hybrid, liquid β-gal assay, 10 nM DHT)” value with AR DBD-LBD was 10 fold. The binding result (with vitamin D receptor (VDR); in experiment [1]; in experiment [2]) was “no binding” each time.
As for B2, in experiment [3], the binding result is reported as “no binding”.
For the molecule B3, the results for the binding result in experiment [4] and in experiment [5] were “no binding” and “binds”, respectively.
Turning to B4, the binding result in experiment [6] is given as “no binding”.
